Data on three substances can be found in publication doi:10.1101/2025.03.24.644915.

The target in test [1] is VP7 glycoprotein, rotavirus SA11 clone C4111 (simian rotavirus A strain SA11 (clone C4111)). In words: cryo-EM structure; purified NTR-TLP (made without trypsin, with leupeptin); single particle analysis with icosahedral symmetry, 3.40 Å; spike by localized reconstruction, 3D classification, optical flow (EnRICH) and LocSpiral.
Test [2] shares this target. The experiment in a line: cryo-EM structure; purified TR-TLP (made in the presence of trypsin); single particle analysis with icosahedral symmetry, 3.48 Å; spike by localized reconstruction, 3D classification, optical flow (EnRICH) and LocSpiral.
The target in test [3] is VP4 spike protein, uncleaved (NTR spike), simian rotavirus A strain SA11 clone C4111 (simian rotavirus A strain SA11 (clone C4111)). In words: cryo-EM structure; purified NTR-TLP (made without trypsin, with leupeptin); single particle analysis with icosahedral symmetry, 3.40 Å; spike by localized reconstruction, 3D classification, optical flow (EnRICH) and LocSpiral.
Test [4] has as its target VP6 protein, rotavirus SA11 clone C4111 (simian rotavirus A strain SA11 (clone C4111)). The test is described as above.
The target is the same in test [5]. In words: cryo-EM structure; purified TR-TLP (made in the presence of trypsin); single particle analysis with icosahedral symmetry, 3.48 Å; spike by localized reconstruction, 3D classification, optical flow (EnRICH) and LocSpiral.

As usually defined, the stoichiometry N is the number of molecules, sites or subunits per partner or assembly.

With “VP7 glycoprotein, rotavirus SA11 clone C4111 (natural protein)”, the stoichiometry N in test [1] and in test [2] was 3 in each case. The substance “VP4 spike protein, uncleaved (NTR spike), simian rotavirus A strain SA11 clone C4111 (natural protein)” displayed a stoichiometry N in test [3] of 3. With “VP6 protein, rotavirus SA11 clone C4111 (natural protein)”, the stoichiometry N in test [4] and in test [5] was 3 throughout.
